system: Escherichia coli TOP10; test: shrunken log2 fold change of peptide-encoding DNA abundance (4.5 h post-induction vs induction); higher = less antimicrobial activity (less host growth inhibition); conditions: time post-induction: 4.5 h; library: site-saturation at positions 5, 18, 19, 20
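Also: peptides expressed intracellularly from a pBAD plasmid library in pooled LB shake-flask culture, induced with 0.3% L-arabinose, DNA abundance read by NGS, three biological replicates, DESeq2 with apeglm shrinkage.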

Sequence | shrunken log2 fold change
RRIRQRPPRLPRPRPRPGVMPRP | -0.0819
RRIRLRPPRLPRPRPRPKDMPRP | -0.0444
RRIRRRPPRLPRPRPRPYVAPRP | -0.361
RRIRGRPPRLPRPRPRPMSTPRP | 0.44
RRIRYRPPRLPRPRPRPNLLPRP | -0.213
RRIRARPPRLPRPRPRPYLSPRP | -0.451
RRIRYRPPRLPRPRPRPHVPPRP | -0.277
RRIRGRPPRLPRPRPRPAQAPRP | 0.505
RRIRSRPPRLPRPRPRPPLRPRP | 0.249
RRIRERPPRLPRPRPRPRRKPRP | 0.11
RRIRCRPPRLPRPRPRPYHNPRP | -1.12
RRIRMRPPRLPRPRPRPFRRPRP | -0.117
RRIRLRPPRLPRPRPRPKGQPRP | -0.11
RRIRGRPPRLPRPRPRPWSRPRP | -0.188
RRIRNRPPRLPRPRPRPTHEPRP | 0.0695
RRIRYRPPRLPRPRPRPMSTPRP | -0.0213
RRIRARPPRLPRPRPRPVYNPRP | -0.482
RRIRARPPRLPRPRPRPPGSPRP | 0.759
RRIRKRPPRLPRPRPRPHKYPRP | -0.448
RRIRIRPPRLPRPRPRPLAMPRP | -0.159
RRIRYRPPRLPRPRPRPATPPRP | 0.158
RRIRRRPPRLPRPRPRPWPCPRP | 0.133

Sequence | shrunken log2 fold change
RRIRMRPPRLPRPRPRPLSEPRP | 0.511
RRIRYRPPRLPRPRPRPGAHPRP | -0.818
RRIRHRPPRLPRPRPRPNLDPRP | -1.17
RRIRPRPPRLPRPRPRPANKPRP | -0.267
RRIRKRPPRLPRPRPRPPMCPRP | 0.389
RRIRLRPPRLPRPRPRPVVTPRP | -0.0571
RRIRWRPPRLPRPRPRPDDCPRP | -0.0829
RRIRRRPPRLPRPRPRPYWPPRP | -0.377
RRIRWRPPRLPRPRPRPQLPPRP | -0.00654
RRIRHRPPRLPRPRPRPVNPPRP | -0.307
RRIRERPPRLPRPRPRPYIDPRP | -1.51
RRIRFRPPRLPRPRPRPVNLPRP | 0.025
RRIRVRPPRLPRPRPRPERRPRP | 0.13
RRIRFRPPRLPRPRPRPYMIPRP | -0.59
RRIRWRPPRLPRPRPRPGWEPRP | 0.292
RRIRCRPPRLPRPRPRPISAPRP | -0.142
RRIRCRPPRLPRPRPRPFFHPRP | -0.364
RRIRKRPPRLPRPRPRPNLRPRP | 0.211
RRIRWRPPRLPRPRPRPHDGPRP | -0.00986
RRIRLRPPRLPRPRPRPPIEPRP | -0.424
RRIRNRPPRLPRPRPRPLMYPRP | -0.158
RRIRVRPPRLPRPRPRPATIPRP | -0.101

Sequence | shrunken log2 fold change
RRIRHRPPRLPRPRPRPLNSPRP | -0.883
RRIRDRPPRLPRPRPRPQNRPRP | -0.28
RRIRIRPPRLPRPRPRPMMYPRP | -0.13
RRIRVRPPRLPRPRPRPYVHPRP | -0.104
RRIRWRPPRLPRPRPRPMCSPRP | 0.197
RRIRIRPPRLPRPRPRPWIHPRP | 2.37
RRIRHRPPRLPRPRPRPAYNPRP | -1.04
RRIRNRPPRLPRPRPRPNDYPRP | -0.365
RRIRVRPPRLPRPRPRPNWEPRP | 0.104
RRIRNRPPRLPRPRPRPDPQPRP | 0.0854
RRIRRRPPRLPRPRPRPNNRPRP | -0.0987
RRIRTRPPRLPRPRPRPNVHPRP | -0.637
RRIRTRPPRLPRPRPRPHCKPRP | -0.222
RRIRPRPPRLPRPRPRPKWYPRP | -0.161
RRIRVRPPRLPRPRPRPNHSPRP | -0.632
RRIRPRPPRLPRPRPRPQKDPRP | -0.132
RRIRKRPPRLPRPRPRPTWHPRP | 0.371
RRIRGRPPRLPRPRPRPQMGPRP | 0.339
RRIRARPPRLPRPRPRPRYAPRP | 0.495
RRIRIRPPRLPRPRPRPHAIPRP | -0.21
RRIRDRPPRLPRPRPRPGMVPRP | 0.548
RRIRFRPPRLPRPRPRPCYTPRP | -0.239

Sequence | shrunken log2 fold change
RRIRWRPPRLPRPRPRPVHHPRP | -0.0507
RRIRPRPPRLPRPRPRPGGNPRP | -0.0884
RRIRYRPPRLPRPRPRPAHYPRP | -0.18
RRIRSRPPRLPRPRPRPREEPRP | 0.369
RRIRFRPPRLPRPRPRPLVPPRP | 0.338
RRIRQRPPRLPRPRPRPTTCPRP | 0.106
RRIRKRPPRLPRPRPRPTELPRP | 0.876
RRIRSRPPRLPRPRPRPYNLPRP | -0.573
RRIRWRPPRLPRPRPRPVIKPRP | -0.226
RRIRCRPPRLPRPRPRPGSQPRP | 0.0392
RRIRGRPPRLPRPRPRPYYKPRP | -0.607
RRIRCRPPRLPRPRPRPCYPPRP | -0.743
RRIRWRPPRLPRPRPRPLCWPRP | 0.513
RRIRRRPPRLPRPRPRPQNPPRP | 0.214
RRIRQRPPRLPRPRPRPETSPRP | -0.192
RRIRMRPPRLPRPRPRPGASPRP | 0.854
RRIRFRPPRLPRPRPRPDLQPRP | -0.0778
RRIRLRPPRLPRPRPRPFPRPRP | -0.163
RRIRNRPPRLPRPRPRPVYRPRP | -0.815
RRIRSRPPRLPRPRPRPRGWPRP | 0.624
RRIRQRPPRLPRPRPRPLSQPRP | -0.0534
RRIRLRPPRLPRPRPRPENIPRP | -0.519

Sequence | shrunken log2 fold change
RRIRMRPPRLPRPRPRPKNYPRP | 0.0737
RRIRRRPPRLPRPRPRPGFHPRP | 0.0982
RRIRFRPPRLPRPRPRPDEHPRP | -0.0688
RRIRHRPPRLPRPRPRPEGCPRP | 0.0614
RRIRCRPPRLPRPRPRPPCVPRP | 0.0597
RRIRKRPPRLPRPRPRPIEDPRP | -0.0345
RRIRYRPPRLPRPRPRPSMIPRP | -0.77
RRIRYRPPRLPRPRPRPHTYPRP | -0.189
RRIRSRPPRLPRPRPRPKIRPRP | -0.177
RRIRQRPPRLPRPRPRPWWYPRP | -0.0791
RRIRPRPPRLPRPRPRPPANPRP | 0.418
RRIRDRPPRLPRPRPRPPHFPRP | 0.173
RRIRVRPPRLPRPRPRPDRDPRP | 0.0414
RRIRVRPPRLPRPRPRPTSIPRP | -0.201
RRIRVRPPRLPRPRPRPPQGPRP | 0.203
RRIRFRPPRLPRPRPRPSYPPRP | -0.161
RRIRQRPPRLPRPRPRPVPPPRP | 0.536
RRIRFRPPRLPRPRPRPASSPRP | -0.204
RRIRIRPPRLPRPRPRPSFYPRP | -0.776
RRIRSRPPRLPRPRPRPLRKPRP | 0.383
RRIRNRPPRLPRPRPRPQTKPRP | 0.173

— the supplement of paper PMC9112550, “Optimization of the antimicrobial peptide Bac7 by deep mutational scanning” (BMC Biology, 2022)
